Source: patent US20230121197A1, “ANTIBODIES SPECIFICALLY BINDING THE CARBOXYMETHYLATED CATALYTIC SUBUNIT OF PROTEIN PHOSPHATASE 2A” (Medizinische Universität Wien, priority 2020, published 2023)

Columns and labels:
[1] = target: T1, HA-tagged yeast PP2Ac (PPH21) (Saccharomyces cerevisiae, UniProt P23594); test: Western blot of yeast BY4741 strain lysates (wt, ppe1Δ, ppm1Δ, NaOH); assay type: binding
T1 construct: expressed in transfected cells; host or cells: yeast BY4741 (wildtype, ppe1Δ, ppm1Δ)
Description: Yeast strain BY4741 expressing HA-tagged yeast PP2Ac (PPH21) was used as a background. Of note, the 6 C-terminal amino acids of mammalian/human PP2Ac are identical to the yeast PP2A catalytic subunit PPH21. The BY4741 wildtype (WT) strain contained carboxymethylated PP2Ac and non-carboxymethylated PP2Ac. The BY4741 ppe1Δ strain contained high levels of carboxymethylated PP2Ac because the ppe1 gene was deleted. The BY4741 ppm1Δ strain lacked carboxymethylated PP2Ac because the ppm1 gene was deleted. Said yeast strains were further used for the characterization of monoclonal antibodies, i.e. 7C10-C5, as described further below. […]
Yeast cells were grown at 30° C. to exponential growth phase in drop-out complete medium (2.3 g/l Bacto yeast nitrogen base [Difco, 233520], 20 mg/l adenine, 20 mg/l L-arginine, 15 mg/l L-tyrosine, 15 mg/l L-isoleucine, 25 mg/l L-phenylalanine, 50 mg/l L-glutamic acid, 50 mg/l L-aspartic acid, 100 mg/l L-threonine, 200 mg/l L-serine, 75 mg/l L-valine, 75 mg/l L-methionine, 90 mg/l L-lysine, 20 mg/l uracil, 30 mg/l L-histidine, 0.05 M ammoniumsulfate) lacking L-leucine and containing 2% w/v glucose. Yeast cells were collected by centrifugation at 3,500 rpm at 4° C. in a Beckmann GS-6R centrifuge, washed with ice-cold water and the optical density at 600 nm (0D^600) was measured in a Hitachi U-2000 spectrophotometer. […]

[2] = target: T2, PP2Ac C-terminal peptide meL309, ac-HVTRRTPDYFL-CH3 (α-carboxymethylated) (human, SMILES …); test: ELISA, peptide coated at 2 µg/ml, supernatant 1:50
T2 construct: also called Y307-meL309; mePP2Ac
T2 peptide: Ac-HVTRRTPDYFL-OMe
Procedure: Nunc Medisorp 96-well ELISA flat-bottom plates were coated with peptides L309 (ac-[…]) (SEQ ID NO:18), meL309 (ac-[…]-CH₃) (SEQ ID NO:18) or amL309 (ac-[…]-NH₂) (SEQ ID NO:18) at 2 μg/ml in TBS at 4° C. over-night. After washing once with TBS, the wells were incubated with 2% BSA in TBS for 1 h at RT. After washing once with TBS, the wells were incubated with single clone hybridoma cell culture supernatant clone 7C10-C5 1:50 (˜1 μg/ml) in 1% BSA/TBS for 1 h at RT. After washing twice with TBS, wells were incubated with anti-mouse HRP-coupled secondary antibody for 1 h at RT, followed by washing 3× in PBS. Bound antibodies were detected by colorimetric reaction with 3,3′,5,5′-Tetramethylbenzidine as substrate, and absorbance was measured at 450 nm. Values were normalized to meL309 which was set to 1. Average and standard deviation of N=8 experiments are shown. Statistical significance was assessed using ANOVA followed by Tukey's HSD as a post-hoc test. P values are indicated with *, **, ***, which correspond to values of <0.05, <0.01, and <0.001.
Specifically, flat-bottom Nunc-Immuno Medisorp 96-well ELISA plates (Thermo; 467320) were coated o/n at 4° C. with 50 μl of either a peptide of the sequence ac-[…]-OH (L309; unmodified) (SEQ ID NO:18) at a concentration of 2 μg/ml, a peptide of the sequence ac-[…]-CH₃ (meL309; methylated) (SEQ ID NO:18) at a concentration of 2 μg/ml in TBS (137 mM NaCl (AppliChem, #131659, 2.7 mM KCl (AppliChem, #131494), 24.8 mM Tris (AppliChem, #A1086), pH 7.4 with HCl) or a peptide of the sequence ac-[…]-NH₂ (amL309; amidated) (SEQ ID NO:18) at a concentration of 2 μg/ml in TBS. Of note, the “ac-” in the peptides described here and in other Examples refers to an acetylated N-terminus. Said acetylation neutralizes the positive charge at the N-terminus, and the free charged N-terminus is thereby removed.

T1 sequence (P23594 whole entry): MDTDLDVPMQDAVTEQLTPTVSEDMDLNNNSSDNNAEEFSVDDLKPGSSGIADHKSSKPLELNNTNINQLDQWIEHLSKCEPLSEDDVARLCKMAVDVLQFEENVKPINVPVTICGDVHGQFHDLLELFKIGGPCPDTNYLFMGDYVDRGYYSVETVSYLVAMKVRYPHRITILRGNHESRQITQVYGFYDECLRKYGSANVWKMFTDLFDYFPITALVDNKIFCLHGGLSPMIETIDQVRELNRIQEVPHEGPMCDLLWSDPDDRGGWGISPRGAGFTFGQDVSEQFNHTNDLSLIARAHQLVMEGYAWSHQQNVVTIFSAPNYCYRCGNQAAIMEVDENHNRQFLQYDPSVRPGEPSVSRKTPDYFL

Molecule	detection of PP2Ac in ppe1Δ (carboxymethylated) versus ppm1Δ / NaOH treated (non-carboxymethylated) lysates [1]	fold higher ELISA signal intensity than with the amidated peptide (amL309) [2] [fold]	fold higher ELISA signal intensity than with the non-methylated peptide (L309) [2] [fold]	fold higher ELISA signal intensity than with the α-carboxymethylated PP4c peptide (meL307) [2] [fold]
7C10-C5 monoclonal antibody (antibody, V domains shown, Used as hybridoma culture supernatant (ELISA, Western blot, IHC) or at 50 µg/mL (SPR); also called 7C10 X63; clone 7C10-C5) VH: DVQLQESGPGLVKPSQSLSLTCSVTGYSITSGYYWNWIRQFPGNKLEWMGYISYDGSNNYNPSLKNRISITRDTSKNQFFLKLNSVTTEDTATYYCAGRFAYWGQGTLVTVSA VL: DVLMTQTPLSLPVSLGDQASISCRSSQSIVHSNGNTYLEWYLQKPGQSPKLLIYKVSNRFSGVPDRFSGSGSGTDFTLKINRVEAEDLGVYYCFQGSHVPWTFGGGTKLEIK	detected PP2Ac only in the BY4741 ppe1Δ strain	6	26	≥ 10
7C10-C5: α-carboxymethylation specific mouse monoclonal IgG1 antibody from single clone hybridoma 7C10-C5 (DSM ACC3350) (antibody, Amino acid sequence of the recombinant 7C10-C5 heavy chain; Amino acid sequence of the recombinant 7C10-C5 light chain) heavy: MYRMQLLSCIALSLALVTNSDVQLQESGPGLVKPSQSLSLTCSVTGYSITSGYYWNWIRQFPGNKLEWMGYISYDGSNNYNPSLKNRISITRDTSKNQFFLKLNSVTTEDTATYYCAGRFAYWGQGTLVTVSAAKTTAPSVYPLAPVCGDTTGSSVTLGCLVKGYFPEPVTLTWNSGSLSSGVHTFPAVLQSDLYTLSSSVTVTSSTWPSQSITCNVAHPASSTKVDKKIEPRGPTIKPCPPCKCPAPNLLGGPSVFIFPPKIKDVLMISLSPIVTCVVVDVSEDDPDVQISWFVNNVEVHTAQTQTHREDYNSTLRVVSALPIQHQDWMSGKEFKCKVNNKDLPAPIERTISKPKGSVRAPQVYVLPPPEEEMTKKQVTLTCMVTDFMPEDIYVEWTNNGKTELNYKNTEPVLDSDGSYFMYSKLRVEKKNWVERNSYSCSVVHEGLHNHHTTKSFSRTPGK light: MDMRVPAQLLGLLLLWLSGARCDVLMTQTPLSLPVSLGDQASISCRSSQSIVHSNGNTYLEWYLQKPGQSPKLLIYKVSNRFSGVPDRFSGSGSGTDFTLKINRVEAEDLGVYYCFQGSHVPWTFGGGTKLEIKADAAPTVSIFPPSSEQLTSGGASVVCFLNNFYPKDINVKWKIDGSERQNGVLNSWTDQDSKDSTYSMSSTLTLTKDEYERHNSYTCEATHKTSTSPIVKSFNRNEC	only detected carboxymethylated PP2Ac			
